Laboratory results as given in patent publication WO2005095988A2.

Legend:
[1] = target: Bacillus anthracis protective antigen (PA) (Bacillus anthracis) (UniProt P13423)
[2] = target: Bacillus anthracis protective antigen (PA) (Bacillus anthracis) (UniProt P13423); remark: listed apart in the source

Chain of UniProt P13423 (P13423 30-764 limits assumed): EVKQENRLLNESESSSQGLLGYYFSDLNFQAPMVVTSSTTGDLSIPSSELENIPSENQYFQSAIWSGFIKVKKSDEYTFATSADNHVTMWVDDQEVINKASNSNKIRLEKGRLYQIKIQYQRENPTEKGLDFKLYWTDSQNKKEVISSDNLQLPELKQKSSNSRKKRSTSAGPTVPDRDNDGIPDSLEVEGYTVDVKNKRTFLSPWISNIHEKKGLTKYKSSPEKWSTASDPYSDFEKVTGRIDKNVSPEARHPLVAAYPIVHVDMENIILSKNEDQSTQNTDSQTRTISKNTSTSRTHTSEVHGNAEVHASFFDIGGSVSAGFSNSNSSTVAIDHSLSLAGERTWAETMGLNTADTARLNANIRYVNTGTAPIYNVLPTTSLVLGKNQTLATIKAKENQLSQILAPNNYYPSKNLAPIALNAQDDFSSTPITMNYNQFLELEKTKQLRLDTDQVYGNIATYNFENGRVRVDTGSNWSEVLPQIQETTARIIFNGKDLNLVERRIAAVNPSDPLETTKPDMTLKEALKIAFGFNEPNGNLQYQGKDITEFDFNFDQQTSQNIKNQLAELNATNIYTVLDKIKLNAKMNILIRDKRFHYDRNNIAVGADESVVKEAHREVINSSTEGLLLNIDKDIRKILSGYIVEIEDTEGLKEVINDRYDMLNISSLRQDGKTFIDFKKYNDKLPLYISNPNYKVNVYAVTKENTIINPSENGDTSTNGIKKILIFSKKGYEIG

Row | Substance | fold higher mean fluorescence intensity compared to controls [1] | mean fluorescence [2]
1 | NlpA-[14B7 scFv], anchored on the E. coli inner membrane (APEx) | 9 fold | 30
2 | NlpA-[M18 scFv], anchored on the E. coli inner membrane (APEx) | – | 250
